The record followed here is paper PMC4466390, “Canonical and Noncanonical Sites Determine NPT2A Binding Selectivity to NHERF1 PDZ1” (PLoS ONE, 2015).

Sequences and labels used below:
B1: NHERF1 PDZ1 (11–120) [human] / rhodamine-labeled 22-residue carboxy-terminal NPT2A peptide [modified: 5-(and 6)-carboxytetramethylrhodamine (rhodamine label), coupled to the peptidyl resin after synthesis; 5-(and … (parent)
chain 1: LPRLCCLEKGPNGYGFHLHGEKGKLGQYIRLVEPGSPAEKAGLLAGDRLVEVNGENVEKETHQQVVSRIRAALNAVRLLVVDPETDEQLQKLGVQVREELLRAQEAPGQA
chain 2: ELPPATPSPRLALPAHHNATRL

The variants in this experiment derive from B1. In words: fluorescence polarisation. The settings on record: with rhodamine-labeled 22-residue carboxy-terminal NPT2A peptide [modified: 5-(and 6)-carboxytetramethylrhodamine (rhodamine label), labeled NPT2A peptide 1 µM, read at the highest PDZ1 concentration, est. ~120 µM, parent: 0.11, read off a plot. A general note: Fluorescence polarisation rises when a labelled molecule tumbles more slowly, as on binding a larger partner.
As for chain 1 LPRLCCLEKGPNGYGFHLHGEKGKLGQYIRLVDPGSPAEKAGLLAGDRLVEVNGENVEKETHQQVVSRIRAALNAVRLLVVDPETDEQLQKLGVQVREELLRAQEAPGQA, the response came out at 0.096. Under chain 1 LPRLCCLEKGPNGYGFNLHGEKGKLGQYIRLVEPGSPAEKAGLLAGDRLVEVNGENVEKETHQQVVSRIRAALNAVRLLVVDPETDEQLQKLGVQVREELLRAQEAPGQA stands 0.1.
